The test system of experiment [1] is pCAG-FRT-Neo-FRT-GFP reporter. Description: Gibberellin ester (GIB)-induced split-Flp rejoinder, GFP reporter. The class given is cell-based, human. As to conditions: GAI/GID1 CIDD pair; with vs without GIB. Here is the method: Full length FlpO and split Flp vectors were tested for induction of recombinase activity on a pCAG-FRT-Neo-FRT-GFP reporter with and without the presence of gibberellin ester (GIB).
FIGS. 43A-43E show results of gene expression of different split-recombinase Flp (SEQ ID NO: 1) or B3 fragments (SEQ ID NO: 19). […] FIGS. 43B-43E show the GFP expression levels of different amino acid residue of split sites (S) of Flp amino acid sequence (top; shown in blue) and amino acid residue of split sites (S) of B3 amino acid sequence (below, shown in orange).
DNA was transfected into the human embryonic kidney cell line (HEK293FT) using a polyethylenimine (PEI) protocol. Cells were plated onto 48-(2504) or 96-well (1004) plates the day prior to transfection (200,000 cells/mL), such that the cells were 50-70% confluent the day of transfection. Cells were kept in a humidified incubator at 37° C. and 5% CO2 and maintained in DMEM medium (Corning) with 10% Heat Inactivated Fetal Bovine Serum (Life Technologies), 50 U.I./mL penicillin/50 μg/mL streptomycin (Corning), 2 mM glutamine (Corning) and 1 mM sodium pyruvate (Lonza). PEI stocks were made from linear polyethylenimine (Polysciences 23966-2) and were dissolved at a concentration of 0.323 g/L in deionized water with the assistance of concentrated hydrochloric acid and sodium hydroxide and then filtered sterilized (0.24 μm). PEI stocks were stored at −80° C. until use and warmed to room temperature prior to usage. For 48-well plate transfections, DNA (1000 ng, 50 ng/4) was dissolved and brought up to a volume of 50 μL using 0.15 M sodium chloride (NaCl, Fisher Scientific). DNA-NaCl solutions were then mixed with 50 μL of a PEI-NaCl mixture (8 uL PEI: 42 uL NaCl). These solutions were then incubated at room temperature for ten minutes and 25 μL was carefully dropped into individual wells of HEK293FT cells (250 ng DNA/well). Similarly, for 96-well plate transfections, DNA (500 ng, 50 ng/4) was dissolved and brought up to a volume of 25 μL using 0.15 M sodium chloride (NaCl). DNA-NaCl solutions were then mixed with 25 μL of a PEI-NaCl (4 uL PEI: 21 uL NaCl) mixture. These solutions were then incubated at room temperature for ten minutes and 10 μL was carefully dropped into individual wells of HEK293FT cells (100 ng DNA/well). Electronic space-adjustable multichannel pipettors (Integra Biosciences) were utilized throughout the process for rapid aspiration and dispensing of molecular and cellular reagents. […]
Two days post-transfection and after trypsinization (0.05% Trypsin/0.53 mM EDTA, Corning) and resuspension, all HEK293FT cell populations were analyzed using a Becton Dickinson (BD) LSRFortessa SORP flow cytometer with HTS. […]

Experiment [2] deals with BUF logic reporters in HEK293FT. Description: Recombinase activity, orthogonality and cross-reactivity on BUF logic reporters. As to conditions: transient transfection, dose-response (FIG. 8). The format is cell-based, human. As to the method:
FIG. 8A-8C show recombinase cross-reactivity dose-response profile of Cre, Dre, VCre and Vika. FIG. 8A is a summary of intended and unintended recombination of Cre, Dre, VCre and Vika site-specific recombinases.
DNA was transfected into the human embryonic kidney cell line (HEK293FT) using a polyethylenimine (PEI) protocol. Cells were plated onto 48-(2504) or 96-well (1004) plates the day prior to transfection (200,000 cells/mL), such that the cells were 50-70% confluent the day of transfection. Cells were kept in a humidified incubator at 37° C. and 5% CO2 and maintained in DMEM medium (Corning) with 10% Heat Inactivated Fetal Bovine Serum (Life Technologies), 50 U.I./mL penicillin/50 μg/mL streptomycin (Corning), 2 mM glutamine (Corning) and 1 mM sodium pyruvate (Lonza). […]
Two days post-transfection and after trypsinization (0.05% Trypsin/0.53 mM EDTA, Corning) and resuspension, all HEK293FT cell populations were analyzed using a Becton Dickinson (BD) LSRFortessa SORP flow cytometer with HTS, except for data in FIG. 5, which were recorded on a BD LSRII. Time-course data was achieved through trypsinization and fixation of cells at particular time points (BD Cytofix) and kept at 4° C. until analyzed through flow cytometry. […]

Entries after “also recorded” stand apart in the source; their conditions may differ.

B1: Flp 396: Flp (SEQ ID NO: 1) split into aa 1-396 and 397-423, fused to CIDD pair (protein)
chain 1: MSQFDILCKTPPKVLVRQFVERFERPSGEKIASCAAELTYLCWMITHNGTAIKRATFMSYNTIISNSLSFDIVNKSLQFKYKTQKATILEASLKKLIPAWEFTIIPYNGQKHQSDITDIVSSLQLQFESSEEADKGNSHSKKMLKALLSEGESIWEITEKILNSFEYTSRFTKTKTLYQFLFLATFINCGRFSDIKNVDPKSFKLVQNKYLGVIIQCLVTETKTSVSRHIYFFSARGRIDPLVYLDEFLRNSEPVLKRVNRTGNSSSNKQEYQLLKDNLVRSYNKALKKNAPYPIFAIKNGPKSHIGRHLMTSFLSMKGLTELTNVVGNWSDKRASAVARTTYTHQITAIPDHYFALVSRYYAYDPISKEMIALKDETNPIEEWQHIEQLKGSAEG
chain 2: SIRYPAWNGIISQEVLDYLSSYINRRI
modifications: fused to CIDD pair
For the molecule B1, the “GFP expression of split-Flp by split site (S)” value in experiment [1] is recorded as “result in GFP expression in the presence of GIB”.

B2: VCre: full-length tyrosine recombinase (SEQ ID NO: 16), recognizes VloxP (protein)
chain: MIENQLSLLGDFSGVRPDDVKTAIQAAQKKGINVAENEQFKAAFEHLLNEFKKREERYSPNTLRRLESAWTCFVDWCLANHRHSLPATPDTVEAFFIERAEELHRNTLSVYRWAISRVHRVAGCPDPCLDIYVEDRLKAIARKKVREGEAVKQASPFNEQHLLKLTSLWYRSDKLLLRRNLALLAVAYESMLRASELANIRVSDMELAGDGTAILTIPITKTNHSGEPDTCILSQDVVSLLMDYTEAGKLDMSSDGFLFVGVSKHNTCIKPKKDKQTGEVLHKPITTKTVEGVFYSAWETLDLGRQGVKPFTAHSARVGAAQDLLKKGYNTLQIQQSGRWSSGAMVARYGRAILARDGAMAHSRVKTRSAPMQWGKDEKD
In the case of B2, the “Cross-reactivity on other recombinases' reporter constructs” value in experiment [2] was “showed cross-reactivity in a dose-dependent manner; also recorded: can recombine Vika's recombination sites”.

B3: Cre: full-length tyrosine recombinase, recognizes loxP (protein)
chain: MSNLLTVHQNLPALPVDATSDEVRKNLMDMFRDRQAFSEHTWKMLLSVCRSWAAWCKLNNRKWFPAEPEDVRDYLLYLQARGLAVKTIQQHLGQLNMLHRRSGLPRPSDSNAVSLVMRRIRKENVDAGERAKQALAFERTDFDQVRSLMENSDRCQDIRNLAFLGIAYNTLLRIAEIARIRVKDISRTDGGRMLIHIGRTKTLVSTAGVEKALSLGVTKLVERWISVSGVADDPNNYLFCRVRKNGVAAPSATSQLSTRALEGIFEATHRLIYGAKDDSGQRYLAWSGHSARVGAARDMARAGVSIPEIMQAGGWTNVNIVMNYIRNLDSETGAMVRLLEDGD
B3: the “Cross-reactivity on other recombinases' reporter constructs” value in experiment [2] is “showed cross-reactivity in a dose-dependent manner; also recorded: mutually cross-reactive”.

B4: Flp 374: Flp (SEQ ID NO: 1) split into aa 1-374 and 375-423, fused to CIDD pair (protein)
chain 1: MSQFDILCKTPPKVLVRQFVERFERPSGEKIASCAAELTYLCWMITHNGTAIKRATFMSYNTIISNSLSFDIVNKSLQFKYKTQKATILEASLKKLIPAWEFTIIPYNGQKHQSDITDIVSSLQLQFESSEEADKGNSHSKKMLKALLSEGESIWEITEKILNSFEYTSRFTKTKTLYQFLFLATFINCGRFSDIKNVDPKSFKLVQNKYLGVIIQCLVTETKTSVSRHIYFFSARGRIDPLVYLDEFLRNSEPVLKRVNRTGNSSSNKQEYQLLKDNLVRSYNKALKKNAPYPIFAIKNGPKSHIGRHLMTSFLSMKGLTELTNVVGNWSDKRASAVARTTYTHQITAIPDHYFALVSRYYAYDPISKEMIAL
chain 2: KDETNPIEEWQHIEQLKGSAEGSIRYPAWNGIISQEVLDYLSSYINRRI
modifications: fused to CIDD pair
Turning to B4, the “GFP expression of split-Flp by split site (S)” value in experiment [1] is “result in GFP expression in the presence of GIB”.

The values above are taken from patent publication US12428633B2, “Inducible dimerization of recombinases” (TRUSTEES OF BOSTON UNIVERSITY, priority 2016, dated 2025).
